The target in test [1] is T1, GST-EZRIN Binding Protein 50 PDZ domain 2 (Homo sapiens (Human)), O14745.
T1 chain: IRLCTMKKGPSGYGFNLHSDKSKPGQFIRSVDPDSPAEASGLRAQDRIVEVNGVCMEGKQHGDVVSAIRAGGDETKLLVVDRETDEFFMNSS
The test is described as follows: G' assay. Note: key of the grades not given here.

The target in test [2] is T2, GST-KIAA1095 PDZ domain 1 (Homo sapiens (Human)), Q9UPQ7.
T2 chain: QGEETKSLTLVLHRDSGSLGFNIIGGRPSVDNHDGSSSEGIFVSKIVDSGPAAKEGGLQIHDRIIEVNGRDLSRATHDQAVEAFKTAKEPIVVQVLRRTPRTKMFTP
Nature of the test: G' assay. Note: key of the grades not given here.

In test [3] the target is T3, GST-PDZK1 PDZ domains 2, 3, 4, Q5T2W1.
T3 chain: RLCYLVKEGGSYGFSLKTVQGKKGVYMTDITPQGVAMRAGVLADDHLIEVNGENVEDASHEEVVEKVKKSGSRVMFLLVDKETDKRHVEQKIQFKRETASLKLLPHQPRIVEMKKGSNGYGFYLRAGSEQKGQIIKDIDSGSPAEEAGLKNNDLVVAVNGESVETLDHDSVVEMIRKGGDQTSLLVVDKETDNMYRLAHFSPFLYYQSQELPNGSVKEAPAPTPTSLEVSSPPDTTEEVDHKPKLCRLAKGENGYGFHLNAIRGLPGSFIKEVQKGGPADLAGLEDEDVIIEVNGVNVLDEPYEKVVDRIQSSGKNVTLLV
Nature of the test: G' assay. Note: key of the grades not given here.

In test [4] the target is T4, GST-KIAA0380 PDZ domain 1 (Homo sapiens (Human)), O15085.
T4 chain: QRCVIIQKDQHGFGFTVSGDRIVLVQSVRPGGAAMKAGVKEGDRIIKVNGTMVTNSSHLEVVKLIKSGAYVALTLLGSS
Nature of the test: G' assay. Note: key of the grades not given here.

The target of test [5] is T5, GST-PSD95 PDZ domain 3 (Homo sapiens).
T5 chain: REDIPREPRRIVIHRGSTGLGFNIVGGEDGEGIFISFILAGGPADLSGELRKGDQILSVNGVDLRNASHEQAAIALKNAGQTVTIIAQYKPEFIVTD
The test is described as follows: G' assay. Note: key of the grades not given here.

Test [6] has as its target T6, GST-FLJ11215 PDZ domain 1 (Mus musculus (Mouse)), O88952.
T6 chain: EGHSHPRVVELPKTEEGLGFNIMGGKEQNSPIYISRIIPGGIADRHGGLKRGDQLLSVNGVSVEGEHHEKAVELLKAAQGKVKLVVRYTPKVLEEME
The test is described as follows: G' assay. Note: key of the grades not given here.

Test [7] deals with T7, GST-LIMK1 PDZ domain 1 (Homo sapiens (Human)), P53667.
T7 chain: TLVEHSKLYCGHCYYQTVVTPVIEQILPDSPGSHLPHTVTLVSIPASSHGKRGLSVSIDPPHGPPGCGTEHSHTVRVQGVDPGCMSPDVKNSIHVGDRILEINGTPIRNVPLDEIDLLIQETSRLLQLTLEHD
Nature of the test: G' assay.

The target in test [8] is T8, GST-GRIP 1 PDZ domain 3 (Homo sapiens (Human)), Q9Y3R0.
T8 chain: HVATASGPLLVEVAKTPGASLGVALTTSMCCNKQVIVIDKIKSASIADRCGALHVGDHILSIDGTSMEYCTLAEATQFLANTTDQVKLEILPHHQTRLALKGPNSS
Nature of the test: G' assay.

Test [9] deals with T9, GST-KIAA1284 PDZ domain 1 (Homo sapiens (Human)), Q9ULD6.
T9 chain: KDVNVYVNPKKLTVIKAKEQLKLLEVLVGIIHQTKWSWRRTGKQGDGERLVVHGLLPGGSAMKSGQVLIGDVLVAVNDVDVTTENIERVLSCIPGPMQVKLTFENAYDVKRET
Nature of the test: G' assay.

The target of test [10] is T10, GST-MUPP1 PDZ domain 6 (Homo sapiens (Human)), O75970.
T10 chain: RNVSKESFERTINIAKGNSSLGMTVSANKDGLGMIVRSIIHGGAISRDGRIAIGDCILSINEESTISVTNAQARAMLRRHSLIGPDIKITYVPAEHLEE
Nature of the test: G' assay.

Test [11] concerns the target T11, GST-ZO-3 PDZ domain 2 (Homo sapiens (Human)), O95049.
T11 chain: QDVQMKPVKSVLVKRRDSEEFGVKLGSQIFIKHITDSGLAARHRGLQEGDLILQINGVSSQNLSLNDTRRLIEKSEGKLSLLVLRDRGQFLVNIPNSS
Nature of the test: G' assay.

Test [12] has as its target T12, GST-SITAC-18 PDZ domain 2 (Homo sapiens (Human)), Q9H190.
T12 chain: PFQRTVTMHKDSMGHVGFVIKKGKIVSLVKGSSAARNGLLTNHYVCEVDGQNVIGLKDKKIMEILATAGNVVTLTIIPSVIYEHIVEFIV
Nature of the test: G' assay.

For test [13], the target named is T13, GST-MUPP1 PDZ domain 8 (Homo sapiens (Human)), O75970.
T13 chain: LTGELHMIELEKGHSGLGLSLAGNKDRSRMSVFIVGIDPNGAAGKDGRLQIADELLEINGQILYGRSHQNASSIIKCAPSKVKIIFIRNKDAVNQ
Nature of the test: G' assay.

For test [14], the target named is T14, GST-MUPP1 PDZ domain 1 (Homo sapiens (Human)), O75970.
T14 chain: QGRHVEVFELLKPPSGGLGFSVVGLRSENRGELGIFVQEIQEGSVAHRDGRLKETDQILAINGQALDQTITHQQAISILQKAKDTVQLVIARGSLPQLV
The test is described as follows: G' assay.

Test [15] concerns the target T15, GST-MUPP1 PDZ domain 2 (Homo sapiens (Human)), O75970.
T15 chain: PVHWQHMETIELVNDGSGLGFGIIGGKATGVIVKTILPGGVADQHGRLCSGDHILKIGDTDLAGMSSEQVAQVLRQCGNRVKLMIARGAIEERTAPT
Nature of the test: G' assay.

The target of test [16] is T16, GST-NeDLG PDZ domain 1 (Mus musculus (Mouse)), P70175.
T16 chain: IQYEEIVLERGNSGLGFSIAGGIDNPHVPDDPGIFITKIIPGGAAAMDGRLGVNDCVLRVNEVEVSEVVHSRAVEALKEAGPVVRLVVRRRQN
The test is described as follows: G' assay.

The target in test [17] is GST-BAI-1 Associated Protein PDZ domain 4 (Homo sapiens (Human)), Q96QZ7. The test is described as follows: G assay titration, PDZ 0.3 ug/ml.
GST-BAI-1 Associated Protein PDZ domain 4 (Homo sapiens (Human)), Q96QZ7, sequence (Q96QZ7 other isoform, or with tags, fused parts or gaps): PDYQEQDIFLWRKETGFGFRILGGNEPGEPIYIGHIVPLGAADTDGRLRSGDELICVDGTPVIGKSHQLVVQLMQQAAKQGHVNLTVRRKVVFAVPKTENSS
For test [18], the target named is GST-BAI-1 Associated Protein PDZ domain 2 (Mus musculus (Mouse)), Q6RHR9. Nature of the test: G assay titration, PDZ 0.3 ug/ml.
GST-BAI-1 Associated Protein PDZ domain 2 (Mus musculus (Mouse)), Q6RHR9, sequence (Q6RHR9 455-558): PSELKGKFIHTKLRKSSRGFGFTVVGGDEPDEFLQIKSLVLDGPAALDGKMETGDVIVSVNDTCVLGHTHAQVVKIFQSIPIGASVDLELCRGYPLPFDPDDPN

In general, Kd refers to the equilibrium constant for the complex coming apart. Read a high Kd as weaker binding.

Regarding PIPAGGCTFSGIFPTLTSPL (modifications not checked) [KIA 1481], the results for the Classification in [1], in test [2] and in test [3] were 2 A450 class, 1 A450 class and 2 A450 class, respectively.

The molecule VPGALDYAAFSSALYGESDL (modifications not checked) [a-actinin 2] displayed a Classification in test [4] of 1 A450 class.

Turning to QISPGGLEPPSEKHFRETEV (modifications not checked) [TAX], the Classification in test [5], in test [6] and in test [7] was 1 A450 class each time.

For the molecule AWDDSARAAGGQGLHVTAL (modifications not checked) [LPAP], the values for the Classification in test [8], in [1] and in [3] were 1 A450 class, 4 A450 class and 3 A450 class, respectively.

Regarding ILNSIQVMRAQMNQIQSVEV (modifications not checked) [ephrin B2], the Classification amounted to 1 A450 class in test [8]; 1 A450 class in [9]; 2 A450 class in test [10]; 2 A450 class in [11]; 3 A450 class in test [12].

For ELLQFCRTPNPALKNGQYWV (modifications not checked) [CSPG4 (chondroitin sulfae proteoglycan 4, melanoma-associated)], the Classification in test [13] amounted to 2 A450 class; in test [14], 2 A450 class; in test [15] it was 5 A450 class.

Regarding TQGFPGPATWRRISSLESEV (modifications not checked) [NMDA Glutamate Receptor 2C (cysteine-free)], the Classification in test [2] amounted to 1 A450 class; in test [5], 2 A450 class; in [16] it was 2 A450 class; in test [6] it was 1 A450 class; in test [7], 1 A450 class; in test [4], 1 A450 class.

For HDFRRAFKKILARGDRKRIV (modifications not checked) [alpha-2A Adrenergic receptor], the Classification in [9] amounted to 1 A450 class; in [13] it was 1 A450 class; in test [10], 2 A450 class; in test [11] it was 3 A450 class; in test [12] it was 4 A450 class.

Take KTMPAAMYRLLTAQEQPVYI (modifications not checked) [MINT-1]: the Classification in [14] and in [15] was 1 A450 class each time.

VGTLLLERVIFPSVKIATLV (modifications not checked) [AdenoE4 typ9]: the values for the Kd in test [17] and in test [18] were 100 nM and 20 nM, respectively. In [16], this molecule had a Classification of 1 A450 class.

(Values after US20050282743A1, “Molecular interactions in cells” (Arbor Vita Corporation, priority 2001, published 2005).)
